This passage reports relative luciferase expression results from paper PMC3944234.

The target in this experiment is GAL4-Nef (HIV-1 Nef fused to the GAL4 DNA-binding domain) (HIV-1). As to the kind of experiment: two-hybrid.

The substance “VP16-eEF1A (eEF1A fused to the VP16 activation domain) (from UniProt P68104 1-462) (natural protein)” gave a relative luciferase expression of 1850 r.l.u.
